According to a protein production outcome set (Wang et al. 2014):

Test: label from the status in PepcDB records

| Sequence | protein production |
| --- | --- |
| MEQQEEKRKIKAYQRKSKRSKSGSSSIPLDLVSEILLRLPEKSVARFRCVSKPWSSITTEPYFINLLTTRSPRLLLCFKANEKFFVSSIPQHRQTFETWNKSHSYSQLIDRYHMEFSEEMNYFPPTESVNGLICFQESARLIVWNPSTRQLLILPKPNGNSNDLTIFLGYDPVEGKHKVMCMEFSATYDTCRVLTLGSAQKLWRTVKTHNKHRSDYYDSGRCINGVVYHIAYVKDMCVWVLMSFDVRSEIFDMIELPSSDVHKDVLIDYNGRLACVGREIIEKNGIRLWILEKHNKWSSKDFLAPLVHIDKSLSTNKFLLKGFTHAGEIIYVESMFHKSAKIFFYDPVRNTSRRFELKGFTDDEFVLSNEHGYTLHVFPNHVESQISFT | failed |
| MEQSFFRELLHYQRPKDNPFRLVFAGLVMFSILFLGYINHQLLISSFGSLGIFTFLYYQPLPLKQLMTRLSVVGSYLFLGNLLGMLSTHIAWLIPIVVALVGFGGRFFFEVYDISKPGAFFGVMVTAMGASTSIPLAKIPFMSGCMLLGIGFSILFALVLHFTEKEISVPLAKRSLRERIYQHPEAPLDSIYYSFVLFFAVYISESLHLQNPYWLVVSCASILQGDNLRAIKQRNIQRIFGTTIGLVISAFLLNLALTTFESIVVITILFVTVEYFIRRNYGLAQFFTTPMALMLSLLVRQQYVITLIQFRFLGIVLGSLLGLSSSVAIHRCSNVL | failed |
| MEQTTIDGIALTLAGPVQLPLKWVGQDELLQQLLAAWMVIDDRDIPFSPRLIGKPGVGKTTLAYAAARRLGRPVYLFQATMDTRPEDLIITPVIGPDGKIQYAASSLVSAMVKGGVLILDEGNRMSEKAWASLAPLLDDRRYVESIITGLRVPAHRDFRIVVTMNEDASTFEVPEYIHSRLQPQIFIDFPEADEELMILKENLPFAPTRILKYVVDFLQRAHAADELYSVRDGINIARYALKMMAATERDAAELLPLAVERVLGDEALRYLALEHHHHHH | failed |
| MERELGPWRLTFRVRGWLSDEVFGEISRYARYLGRDRGYGLFRIDPERLRGNGLTLWDAIASLEDLGVAVEEDLEALKRAAEEALRVVLELRGGWVYISSRVMLKPILEEEGLSLPYDREARAYRAPPIMYPRLREAFERRGLKVEDRVFPPSSRSLPRPVRFTGELRDYQEEALEAWRKAGGRGVIVLPTGAGKTVVAIAAVAWAGVWSLIVVYTRDHVRQWIDAFRRFTDAHSLVGAYYGEEKRLAPITVTTYQTAYRHIDRLAPLFPFLVFDEAHHIPADKFKRIASASPAPYRMGLSATIEREDGRHEEVYSLVGGVVYSSSPGELTRKGYLAPFVIRRVKVELEEEEKRLYEDLKRKYRILARGRSFEKILEDARRGDPTAIEAIRVNTRMKEIVQLSESKIRAVEKLVREELSRGSKVIVFTQYRRQAEEIARRTGALLLHGGLERRVREATLAKFRALKAGALVVTTVGDEGLDIPDANVGILVSGTGSRRQFIQRLGRLLRPGEGKRAVLYEVIARGTGEELQSRRRRGRG | failed |
| MERGRSDMEMINNMANCLILLSKAHQNDTKSRVFACKTCNKEFPSFQALGGHRASHRRSAALEGHAPPSPKRVKPVKHECPICGAEFAVGQALGGHMRKHRGGSGGGGGRSLAPATAPVTMKKSGGGNGKRVLCLDLNLTPLENEDLKLELGRFIF | failed |
| MERIRWLYGFLACILIAILLAPLQIMAQGEFRTSDQPLVYYIPVEQEVERGLEAFLQRSLDSAVEEGADHIVLEINTPGGRVDAAGNMARALRETDIPITAYVIDQALSAGAYIALNADEIVMAPGSTMGSAAVIDSAGNAADEKAQSYWLAEMRNAAEYNDRDPKYALAMADRSIEIPELDISNEELLTLTASQALEVNYAEAIASNRAELLEHLQIDNAFEQEMEVSFAEKLARFVTNPLIIPILLSIGSLGLVLELYSPGFGVPGIMGISALLLFFFGHLIAGFAGYEAMILFIAGFLLILIEVFMPGFGLFGILGIAGMIGGMLLASFSTAWMLVSLGISAVVTTVVAIITFRYFGSRGPWKKMILTESTSSEKGYITNETRQELVGLIGQSLTPLRPSGSGLFGEERLDVVSEGGYIEQGRKIKVVSTSGSRIVVRETDELEHHHHHH | failed |
| MERKINRREKEKEYEGKHNSLEDTDQGKNCKSTLMTLNVGGYLYITQKQTLTKYPDTFLEGIVNGKILCPFDADGHYFIDRDGLLFRHVLNFLRNGELLLPEGFRENQLLAQEAEFFQLKGLAEEVKSRWEKEQLTPRETTFLEITDNHDRSQGLRIFCNAPDFISKIKSRIVLVSKSRLDGFPEEFSISSNIIRFKYFIKSENGTRLVLKEDNTFVCTLETLKFEAIMMALKCGFRLLTSLDCSKGSIVHSDALHFIK | not failed |
| MERKISDEECPVRKSMQIFAGKWTLLIIFQINRRIIRYGELKRAIPGISEKMLIDELKFLCGKGLIKKKQYPEVPPRVEYSLTPLGEKVLPIIDEIAKFGMENL | not failed |
| MERKRYSKRYCKYTEAKISFIDYKDLDMLKHTLSERYKIMPRRLTGNSKKWQERVEVAIKRARHMALIPYIVDRKKVVDSPFKQH | failed |
| MESAATAVVPPAAAATTATATDDNLQSSDSSSPADAVNRLIHAFSQRQQHLLDKTVPHVLYRWIACLCVVLIYIVRVYFVEGFYIITYAIGIYLLNLIIAFLSPQEDPEASLTSGGSLPTRRSDEYRPFVRRLPEFKFWLSIIRAFIIGFMMTFFEVFDVPVFWPILLFYWVMLFFLTMRKQIQHMIKYRYVPFSFGKKVCVSFSFLPSQN | failed |
| MESGIFGEGGSLPPLPVLLRGLQDLGLLGKLDIARRATLTGISLCFSVFLQHIGIMWIQVRTMDGKETHTVNSLSRLTKVQELRKKIEELFHVEPQLQRLFYRGKQMEDGHTLFDYDVRLNDTIQLLVRQSLALPLSTKERDSELSDSDSGYGVGHSESDKSSTHGEGTADGDDKTVWEDTDLGLYKVNEYVDVRDNIFGAWFEAQVVQVQKKALSEEEPCSSSAIMAPEDDIMYHIKYDDYPEHGVDIVKAKNVRARARTVIPWEDLEVGQVVMANYNVDYPRKRGFWYDVEICRKRQTRTARELYGNVMLLNDSQLNNCRIIFVDEVLKIELPNERSPLIGSPSRRKSGPSCQYCKDDENKPCRKCACHICGGREAPEKQVLCDECDMAFHLYCLQPPLTCVPPEPEWYCPSCRTDSSEVVQAGEKLKKSKKKAKMASATSSSRRDWGKGMACVGRTTECTIVPANHFGPIPGVPVGTMWRFRVQVSESGVHRPHVAGIHGRSNDGAYSLVLAGGYEDDVDNGNFFTYTGSGGRDLSGNKRTAGQSSDQKLTNNNRALALNCHSPINEKGAEAEDWRQGKPVRVVRNMKGGKHSKYAPAEGNRYDGIYKVVKYWPEKGKSGFIVWRYLLRRDDTEPEPWTREGKDRTRQLGLTMQYPEGYLEALANKEKNRKRPAKALEQGPSSSKIGKSKRKSTGPATTSPRVSKKSKLEPYTLPLQQANLIKEDKGNAKLWDDVLSSLQDGPYQIFLSKVKEAFQCICCQELVFRPVTTVCQHNVCKDCLDRSFRAQVFSCPACRYDLDHSSPTRVNQPLQTILNQLFPGYGSGR | failed |
| MESGNVVNTQPELSGIIDGSKSYMYEQLWKLCAGPLCDIPKLGEKVYYFPQGHIELVEASTREELNELQPICDFPSKLQCRVIAIQLKVENNSDETYAEITLMPDTTQVVIPTQNQNQFRPLVNSFTKVLTASDTSVHGGFSVPKKHAIECLPPLDMSQPLPTQEILAIDLHGNQWRFRHIYRGTAQRHLLTIGWNAFTTSKKLVEGDVIVFVRGETGELRVGIRRAGHQQGNIPSSIVSIESMRHGIIASAKHAFDNQCMFIVVYKPRSSQFIVSYDKFLDVVNNKFNVGSRFTMRFEGDDFSERRSFGTIIGVSDFSPHWKCSEWRSLEVQWDEFASFPRPNQVSPWDIEHLTPWSNVSRSSFLKNKRSREVNEIGSSSSHLLPPTLTQGQEIGQQSMATPMNISLRYRDITEDAMTPSRLLMSYPVQPMAKLNYNNVVTPIEENITTNAVASFRLFGVSLATPSVIKDPVEQIGLEISRLTQEKKFGQSQILRSPTEIQSKQFSSTRTCTKVQMQGVTIGRAVDLSVLNGYDQLILELEKLFDLKGQLQARNQWEIAFTNNEEDKMLVGEDPWPEFCNMVKKIFIYSKEEVKNLKSRKSLSS | failed |
